# Reference: the domain aggregation screens of Martell et al. (2025)
# Assay: soluble fraction after stress (log2 fold change); higher = more stays soluble; pooled small domains, quantitative proteomics
# Conditions: stress: 75 degC
# 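Note: 20 min heating vs room temperature control held 20 min.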
row,Sequence,soluble fraction (log2)
1,HMVMTTVPEVLGMDIRTAASMLTGKNLKYDYDLVESDKPKDEVIEQDQAKGTEVPEGTVVKLKVSKGPA,0.143
2,HMPMDDETWDALSLFAYKRYARENGWPLMIGAEALRDTFASYFPLDSSTWQDRSSHYLTYQDGIYTRT,-0.247
3,HMTERIRLHDDIGSWVEKHGATRSALIPVLQGIQRSYNEISEYAMQEVADRLDIHPVEVYSVVSFYSF,0.307
4,HMETFGEKDLDELIGRNVELITHDGKVREGLVDSVDRYNVSLVRYLDAGEVAMMVRRREVKAVRLK,-0.703
5,HMGVTGYPNPTREHITWDDARRIEVWNAYGVPVADLRFARGVLDVAGWPVGTYVARIDGGRSVRFVVI,-1.05
6,HMLDLSEEEQKIVSILEKQGNLQINSLVVEADIPVHKINAILFELEMKGVVRVLALSLIHISEP,0.149
7,HMQVSDEGAIQLLVQKAIEENPQAIEAFRGGKTSALGPVVGWVMKQSKGAANPTMVKTLLEKAI,0.154
8,HMKKSIRIFELMKAKVAAEIFDQMILEGKIEDVFDIIVRLKDSNVSNIMKTMSVENSSRLVQKLERYNKD,-3.12
9,HMEQNTKAYEQVRTLTDLLNQYRHEYYNLSAPSVSDQEYDRLFDALAALEKQTGIVMSNSPTQTVG,0.0212
10,HMDPDDEILINIMTKLLTEKQIIIKNKEIFNFLLKRINRTYEEVYNLINKMDKLSLEKKKQLTIPSIKEL,-1.71
11,HMGADGIPGKNGENGETSYVHFAYATSADGKTGFSTTDTVGKTYMGQYADFEKADSEDPTKYRWGKFQGP,0.0581
12,HMDREILWTNYVAARKQEFIASSIDTIGAEYLDNRRFWDTQFEREWTIIAERLASGFGLTDDILSIVGSDF,-4.12
13,HMATAPQIRAIYALGSKLGINQNSREDNLHQLVYSITGKESIKGLTNYEAARVQSELANMERK,0.323
14,HMSRESNISTGRQLLEAQLPTWGYKKVEDIPSKQMKTALDAFNYKDVESLLQGLGEGSVALTTALRRLMP,-0.095
15,HMAGPGAEVVDRLIAVLTGERPATAADQVLLSILKGLGIGGVVLPSERTGLGWSGLYQRVKEITDMN,-1.61
16,HMYSDERLQTFMELLPFFVEELSNKHVTRYNVWQNYREAYPNGYGRSQFFFHLGQNLEAKKK,-1.34

row,Sequence,soluble fraction (log2)
1,HMAQVSDTGAIAKIVADAIAANPKQVQQYLDGNEKVLMYLVGQVMKLSKGKANPPMVIQLLKEQLG,-0.125
2,HMFTSVDVAPDLRTAKVFYSVLGRKKSDKEINIAINQKRKAFKKFMGPELHLKNIPDLHFYYD,-0.369
3,HMNLAISAYQQLKSDIIRGVYAPGEKLLMSRLKVRYGLGIGPMREALSQLVSEHLVTAASQRGYRVAGM,-1.79
4,HMPLITLSAEIQSEQIGQRLDQTLAELFPEYSRSRLKTWIEADLVKLNNQIVNIPREKVLGGEHVEITVDI,-1.09
5,HMDSQSVFADLVKSLSQKIASIPVWFEYTKNEQYDLISSYVSAKLKDLGVEFSQEEKEKFITMFMNS,-0.609
6,HMQISNEEELEKIIENVIESNPEKVKAYQSGKSGLIGFFMGQVMKESGGQANPNLVNQILKGKL,0.109
7,HMAALKVAVLTVSDTRTQETDTSGAFLEGALREAGHEIADRQIVIDDVYQLRAIVSQWIADPEVEVILT,-0.121
8,HMKEVKAPMPGMVLRVEVAPGQEVQEGDPLLVLEAMKMENNLKSPASGTIKSVHVEAGKAVEKGAVLVVF,-0.0661
9,HMDEPGAGYKWREDVLLRVMASHGIEESLRDDFVRHAVGFDNDDNMYLKKVEIENAAAAWVAN,-0.359
10,HMEDSEYDRLLAEIDEGIRKAIETLEPVELSPQNARVRRIQHQIIEKYQLHSDSVGEEPYRRVRIL,-0.596
11,HMIDTPQELARLLRLLDEQNFEAEILFHKLRPDLLHLWSKEHVTRIAEALDAFDYQMALTLLNASP,-2.43
12,HMEEYLENLTQSKLLHMLDQLSPAYKTVFTLFVLDELSHEEISKMLNISIGTSKSNLFRARKVMRVLMESE,-0.273
13,HMLSNYIGMTLGEAKRNLGQGVNITVNGPNNDNAEVTGQDPTSGSSFDKSKDTITLTT,0.148
14,HMQLTQEAIENLFKITTAKKFREELEKLVVTDSEKKAFAYFTVYHPKLKELPFAILKSVENYTGISI,-0.963
15,HMQRRHESTPIPADFDYAAVRGLSAEVQQKLERVRPLSIGQAQRIPGMTPAAISLLLVHLERQRRSRV,-1.24
